# Measured values from patent publication US6183121.
# Assays:
# [1] = target: HCV NS3 helicase domain (wild type) (Hepatitis C virus) (UniProt P26664); experiment: filter; conditions: 25 mM MOPS pH 7.0, 2 mM DTT, 30 C; 0.445 RNA per helicase molecule; koff 1.52e-2 min-1
# [2] = target: HCV NS3 full-length (wild type) (Hepatitis C virus) (UniProt P26664); experiment: filter; conditions: reference
# [3] = target: HCV NS3 full-length (wild type) (Hepatitis C virus) (UniProt P26664)
# [4] = target: HCV NS3 helicase domain (wild type) (Hepatitis C virus) (UniProt P26664); conditions: requires ATP and Mn2+ or Mg2+; 25 mM MOPS pH 6.5, 1 mM ATP, 0.5 mM MnCl2, 37 C
# [5] = target: HCV NS3 helicase domain (wild type) (Hepatitis C virus) (UniProt P26664); conditions: poly(U)-stimulated ATPase; 50 mM MOPS pH 7.0, 0.5 mM MgCl2, 37 C
substance,measurement,setting,value
34-nt ssRNA (SP6 transcript of BamHI-digested pSP64),Kd,[1],5.18 nM
same,binding signal,[2],100 % of WT
3'-tailed 98-nt RNA / 34-nt DNA hybrid (pSP65 BsrBI transcript; pSP64 release strand),activity (% of WT unwinding),[3]; reference,100
same,activity (% of WT unwinding),[4],100
poly(U),activity (% of basal WT ATPase),[3]; poly(U)-stimulated ATPase,581
same,activity (% of basal WT ATPase),[5],823
